# Values quoted from earlier work in patent publication US11850285B2, “Insulin-responsive glucagon delivery patch” (North Carolina State University, priority 2017, dated 2023).
# Conditions: in vivo
substance,measurement,value
Insulin glargine,duration,up to 24 hour
